Experimental data: publication PMC6309729 (Biochemistry, 2011)
Numbering of substitutions follows the chain as printed. In names and notes the source's numbering stands. Where two headings read alike, the source gives them in different places.

T1: cpSRP54 (chloroplast SRP54), wildtype (Arabidopsis thaliana, UniProt P37107 76-564)
T1 sequence (looked up): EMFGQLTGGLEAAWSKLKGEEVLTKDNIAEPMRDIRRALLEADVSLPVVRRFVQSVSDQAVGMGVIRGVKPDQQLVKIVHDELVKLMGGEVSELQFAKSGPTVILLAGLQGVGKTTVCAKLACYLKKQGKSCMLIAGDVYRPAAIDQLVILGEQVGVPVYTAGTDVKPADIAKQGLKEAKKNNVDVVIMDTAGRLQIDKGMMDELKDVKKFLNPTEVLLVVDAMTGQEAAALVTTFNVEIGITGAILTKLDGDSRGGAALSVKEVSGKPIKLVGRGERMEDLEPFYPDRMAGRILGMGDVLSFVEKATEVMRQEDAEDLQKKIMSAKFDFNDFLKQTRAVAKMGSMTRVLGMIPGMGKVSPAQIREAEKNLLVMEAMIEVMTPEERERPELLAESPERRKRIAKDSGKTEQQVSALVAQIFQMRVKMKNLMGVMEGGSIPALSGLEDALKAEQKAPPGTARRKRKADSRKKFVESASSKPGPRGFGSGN

B1: cpSRP54(A143L) (natural protein)
chain: MFGQLTGGLEAAWSKLKGEEVLTKDNIAEPMRDIRRALLEADVSLPVVRRFVQSVSDQAVGMGVIRGVKPDQQLVKIVHDELVKLMGGEVSELQFAKSGPTVILLAGLQGVGKTTVCAKLACYLKKQGKSCMLIAGDVYRPALIDQLVILGEQVGVPVYTAGTDVKPADIAKQGLKEAKKNNVDVVIMDTAGRLQIDKGMMDELKDVKKFLNPTEVLLVVDAMTGQEAAALVTTFNVEIGITGAILTKLDGDSRGGAALSVKEVSGKPIKLVGRGERMEDLEPFYPDRMAGRILGMGDVLSFVEKATEVMRQEDAEDLQKKIMSAKFDFNDFLKQTRAVAKMGSMTRVLGMIPGMGKVSPAQIREAEKNLLVMEAMIEVMTPEERERPELLAESPERRKRIAKDSGKTEQQVSALVAQIFQMRVKMKNLMGVMEGGSIPALSGLEDALKAEQKAPPGTARRKRKADSRKKFVESASSKPGPRGFGSGN
modifications: GTP/GMPPNP-Mg2+ state. Paper numbering + 76 = precursor (Met77 = 1, taken as the NdeI start)
B2: cpSRP54(A143W) (natural protein)
chain: B1 chain with L143W
modifications: GTP/GMPPNP-Mg2+ state. Paper numbering + 76 = precursor
B3: cpFtsY (chloroplast SRP receptor), wildtype (natural protein, UniProt O80842 41-366, looked up)
chain: CSAGPSGFFTRLGRLIKEKAKSDVEKVFSGFSKTRENLAVIDELLLFWNLAETDRVLDELEEALLVSDFGPKITVRIVERLREDIMSGKLKSGSEIKDALKESVLEMLAKKNSKTELQLGFRKPAVIMIVGVNGGGKTTSLGKLAHRLKNEGTKVLMAAGDTFRAAASDQLEIWAERTGCEIVVAEGDKAKAATVLSKAVKRGKEEGYDVVLCDTSGRLHTNYSLMEELIACKKAVGKIVSGAPNEILLVLDGNTGLNMLPQAREFNEVVGITGLILTKLDGSARGGCVVSVVEELGIPVKFIGVGEAVEDLQPFDPEAFVNAIFS
B4: cpFtsY(A169L) (natural protein)
chain: B3 chain with A167L
modifications: GTP/GMPPNP-Mg2+ state. Paper numbering + 38 = precursor (motif D163-x-F165-R166-A167-A168-A169), anchored on the named residues
B5: cpFtsY(A169W) (natural protein)
chain: B3 chain with A167W
modifications: GTP/GMPPNP-Mg2+ state. Paper numbering + 38 = precursor

How the values were obtained:
[1] = molecular target: B3; test: cell-based or functional assay
[2] = molecular target: B3; test: GTPase inhibition assay
[3] = molecular target: B3; test: GTPase inhibition assay; remark: listed apart in the source
[4] = molecular target: T1, cpSRP54 (chloroplast SRP54), wildtype; test: cell-based or functional assay
[5] = molecular target: T1, cpSRP54 (chloroplast SRP54), wildtype; test: GTPase inhibition assay
[6] = molecular target: T1, cpSRP54 (chloroplast SRP54), wildtype; test: GTPase inhibition assay; remark: listed apart in the source

B1
kcat/Km of the reciprocally stimulated GTPase reaction [1]: 0.012 µM⁻¹ min⁻¹ | Ki [2]: > 40 µM

B2
Ki [3]: > 50 µM | kcat/Km of the reciprocally stimulated GTPase reaction [1]: 0.037 µM⁻¹ min⁻¹ | Ki [2]: > 40 µM

B3
kcat/Km of the reciprocally stimulated GTPase reaction [4]: 18 µM⁻¹ min⁻¹

B4
kcat/Km of the reciprocally stimulated GTPase reaction [4]: 0.031 µM⁻¹ min⁻¹ | Ki [5]: > 40 µM

B5
Ki [6]: > 50 µM | kcat/Km of the reciprocally stimulated GTPase reaction [4]: 0.028 µM⁻¹ min⁻¹ | Ki [5]: > 40 µM
